In article PMC5476561:

What was measured:
[1] = biological target: Pfs25-IMX313-CTag (Plasmodium falciparum) (UniProt P13829); test: SEC
[2] = biological target: Pfs25-IMX313-CTag (Plasmodium falciparum) (UniProt P13829); test: non-reducing SDS-PAGE; Coomassie-stained gel, non-reduced against reduced sample
[3] = biological target: SpyCatcher-AP205; test: reducing SDS-PAGE of the covalent conjugate

Row | Substance | stoichiometry N [1] | stoichiometry N [2] | percent coupling (coat protein molecules linked to Pfs25-SpyTag) [3]
1 | Pfs25-IMX313-CTag (from UniProt P13829 22-193) | 7 | 7 | 
2 | Pfs25-SpyTag-CTag (from UniProt P13829 22-193) |  |  | 100%
